These results are taken from patent US20240269235A1 (Gilead, published 2024).

The target of assay [1] is T1, IL-2Rβγ heterodimer, custom biotinylated Fc fusion protein (human IL-2Rβ 27-240-Fc-FLAG / human IL-2Rγ … (human, site-specific biotinylation at the AviTag)).
T1 construct: Extracellular regions fused to IgG1 knob-in-hole Fc subunits with tags; also called IL-2 receptor βγ heterodimer; Fc-IL-2Rβγ
The assay is described as follows: SPR (Biacore), C1 or CM5 chip, biotinylated receptor on neutravidin. The source says:
(§1) Data for binding of Fc-IL-2 variant fusion proteins to IL-2Rα, IL-2Rβ and IL-2Rβγ heterodimer were collected on a Biacore platform using either C1 or CM5 chips. Neutravidin was immobilized using standard amine coupling methods and used to capture biotinylated receptors. Commercially sourced IL-2Rα (R&D Systems Cat #: 223-2A/CF) and IL-2Rβ receptors (R&D Systems Cat #:224-2B-025/CF) were biotinylated using sulfo-NHS-LC-LC-Biotin, desalted, and then captured on the neutravidin surfaces. […] Distinct purification tags were appended to the C-terminus of each chain. A FLAG epitope tag ([…]; SEQ ID NO: 257) was added at the C-terminus of IL-2Rβ subunit, followed by C-terminal Hiss tag ([…]; SEQ ID NO: 258). An AviTag™ ([…]; SEQ ID NO: 259) motif on the IL-2Rγ subunit allowed for site-specific biotinylation of the heterodimer.
(§2) Fc IL 2 fusion protein variants, Fc protein, and Proleukin were injected at various concentrations over these surfaces. Kinetic data obtained from these injections was used to extract kₒₙ and koff to calculate KD (KD=koff/kₒₙ). Experiments were run at 25° C. in HBS-EP+ running buffer (10 mM HEPES, 150 mM NaCl, 3 mM EDTA, 0.05% Tween20, pH 7.4 with 0.1 mg/ml BSA). Data shown in Table 5 for Fc IL-2 fusion protein variants binding to the indicated IL-2R surfaces were derived from the global fitting of data obtained from 2-5 independent surfaces.
(In general: SPR reads the build-up and loss of mass on a sensor chip optically.)

Assay [2] concerns the target T2, IL-2Rα (recombinant IL-2 receptor α, R&D Systems Cat #: 223-2A/CF), biotinylated (human, UniProt P01589 22-213, limits assumed, biotinylated using sulfo-NHS-LC-LC-Biotin).
T2 construct: Bought reagent; also used here as the IL-2Rα partner of the in-silico analysis of PDB 2B5I (another construct); also called IL-2RA; CD25
T2 sequence (looked up): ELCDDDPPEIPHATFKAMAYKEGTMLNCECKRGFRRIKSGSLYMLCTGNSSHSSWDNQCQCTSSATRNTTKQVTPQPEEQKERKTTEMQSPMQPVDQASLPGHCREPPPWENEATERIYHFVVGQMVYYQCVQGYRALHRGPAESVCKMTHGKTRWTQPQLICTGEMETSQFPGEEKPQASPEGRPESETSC
The description is as above.
From the text: as §1, §2

In assay [3] the target is T3, IL-2Rβ (recombinant IL-2 receptor β, R&D Systems Cat #:224-2B-025/CF), biotinylated (UniProt P14784 27-239, limits assumed, biotinylated using sulfo-NHS-LC-LC-Biotin).
T3 construct: Bought reagent; also called IL-2RB; CD122
T3 sequence (looked up): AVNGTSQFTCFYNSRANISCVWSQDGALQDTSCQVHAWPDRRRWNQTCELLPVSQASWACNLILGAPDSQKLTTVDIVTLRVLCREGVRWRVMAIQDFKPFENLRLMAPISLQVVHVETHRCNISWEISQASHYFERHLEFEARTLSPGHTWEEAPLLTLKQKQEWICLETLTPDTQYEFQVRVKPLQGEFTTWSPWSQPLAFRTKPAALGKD
Described as above.
From the text: as §1, §2

Assay [4] addresses T4, trimeric murine IL-2 receptor (IL-2Rα, IL-2Rβ, and IL-2Rγ) on CTLL-2 cells (murine, UniProt P01590 22-268; P16297 27-539; P34902 23-369).
T4 sequence (looked up) 1: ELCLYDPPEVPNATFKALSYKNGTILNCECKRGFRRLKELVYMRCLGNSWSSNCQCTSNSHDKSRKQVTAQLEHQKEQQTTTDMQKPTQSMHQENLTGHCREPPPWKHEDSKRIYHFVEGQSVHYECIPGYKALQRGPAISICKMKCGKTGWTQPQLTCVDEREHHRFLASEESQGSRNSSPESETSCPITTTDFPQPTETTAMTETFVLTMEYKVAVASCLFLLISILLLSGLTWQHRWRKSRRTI
T4 sequence (looked up) 2: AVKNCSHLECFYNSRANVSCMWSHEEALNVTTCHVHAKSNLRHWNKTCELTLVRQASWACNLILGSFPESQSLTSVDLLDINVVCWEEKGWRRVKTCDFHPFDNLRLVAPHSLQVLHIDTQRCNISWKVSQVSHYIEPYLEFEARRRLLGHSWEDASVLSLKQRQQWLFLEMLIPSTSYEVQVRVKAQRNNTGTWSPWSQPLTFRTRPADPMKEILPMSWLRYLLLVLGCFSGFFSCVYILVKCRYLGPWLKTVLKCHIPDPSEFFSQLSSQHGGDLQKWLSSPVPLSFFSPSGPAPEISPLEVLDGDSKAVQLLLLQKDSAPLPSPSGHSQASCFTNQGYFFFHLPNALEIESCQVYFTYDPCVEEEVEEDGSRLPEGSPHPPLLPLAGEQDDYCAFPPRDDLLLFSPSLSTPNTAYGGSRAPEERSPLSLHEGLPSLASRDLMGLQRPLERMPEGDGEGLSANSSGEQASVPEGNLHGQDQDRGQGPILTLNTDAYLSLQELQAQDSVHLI
T4 sequence (looked up) 3: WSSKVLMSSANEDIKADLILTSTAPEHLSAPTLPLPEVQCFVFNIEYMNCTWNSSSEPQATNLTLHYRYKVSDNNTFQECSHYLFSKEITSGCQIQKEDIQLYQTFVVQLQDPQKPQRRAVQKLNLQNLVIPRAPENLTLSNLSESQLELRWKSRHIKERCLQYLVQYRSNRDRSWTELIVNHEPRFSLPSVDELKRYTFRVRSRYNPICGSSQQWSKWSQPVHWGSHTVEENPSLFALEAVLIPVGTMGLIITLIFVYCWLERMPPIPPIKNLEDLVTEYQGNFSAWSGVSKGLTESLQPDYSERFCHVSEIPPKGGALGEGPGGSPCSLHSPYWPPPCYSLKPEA
Nature of the assay: cell-based or functional assay.

Assay [5] deals with T5, human IL-2Rα on Treg cells (CD3+, CD4+, CD25hi, FoxP3+) of human PBMC (human, UniProt P01589 22-272).
T5 sequence (looked up): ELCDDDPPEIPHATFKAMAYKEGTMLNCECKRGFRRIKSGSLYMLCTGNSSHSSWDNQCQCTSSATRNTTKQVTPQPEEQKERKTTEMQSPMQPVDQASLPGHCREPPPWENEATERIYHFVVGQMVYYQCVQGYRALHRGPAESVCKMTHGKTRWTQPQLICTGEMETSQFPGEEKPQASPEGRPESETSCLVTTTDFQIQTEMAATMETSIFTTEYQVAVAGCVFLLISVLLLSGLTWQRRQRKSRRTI
The assay is described as follows: cell-based or functional assay.

Assay [6] addresses T4, trimeric murine IL-2 receptor (IL-2Rα, …). Nature of the assay: cell-based or functional assay. The source holds these as a separate data set.

T1 sequence (chain, as listed by the source limits assumed): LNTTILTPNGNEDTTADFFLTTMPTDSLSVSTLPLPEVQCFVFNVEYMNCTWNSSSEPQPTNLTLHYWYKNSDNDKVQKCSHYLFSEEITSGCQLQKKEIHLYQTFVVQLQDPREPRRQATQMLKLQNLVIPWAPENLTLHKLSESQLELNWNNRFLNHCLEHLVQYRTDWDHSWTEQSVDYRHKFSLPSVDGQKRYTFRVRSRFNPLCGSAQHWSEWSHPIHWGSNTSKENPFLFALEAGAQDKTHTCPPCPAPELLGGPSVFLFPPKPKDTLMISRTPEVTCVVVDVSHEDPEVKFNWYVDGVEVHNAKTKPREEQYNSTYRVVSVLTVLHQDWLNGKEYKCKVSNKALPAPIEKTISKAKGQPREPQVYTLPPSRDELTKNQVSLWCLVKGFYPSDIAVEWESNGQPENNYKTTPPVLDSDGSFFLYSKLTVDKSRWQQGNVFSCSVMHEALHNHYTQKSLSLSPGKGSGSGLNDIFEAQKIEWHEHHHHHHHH

B1: Fc-IL-2v heterodimer 87.46 (hIL-2v_Δ1-5_Y45G_C125S) (Fc fusion)
chain 1: ESKYGPPCPPCPAPEAAGGPSVFLFPPKPKDTLMISRTPEVTCVVVDVSQEDPEVQFNWYVDGVEVHNAKTKPREEQFNSTYRVVSVLTVLHQDWLNGKEYKCKVSNKGLPSSIEKTISKAKGQPREPQVYTLPPSQEEMTKNQVSLWCLVKGFYPSDIAVEWESNGQPENNYKTTPPVLDSDGSFFLYSRLTVDKSRWQEGNVFSCSVMHEALHNHYTQKSLSLSLGGGGGSGGGGSGGGGSGGGGSSTKKTQLQLEHLLLDLQMILNGINNYKNPKLTRMLTFKFGMPKKATELKHLQCLEEELKPLEEVLNLAQSKNFHLRPRDLISNINVIVLELKGSETTFMCEYADETATIVEFLNRWITFSQSIISTLT
chain 2: ESKYGPPCPPCPAPEAAGGPSVFLFPPKPKDTLMISRTPEVTCVVVDVSQEDPEVQFNWYVDGVEVHNAKTKPREEQFNSTYRVVSVLTVLHQDWLNGKEYKCKVSNKGLPSSIEKTISKAKGQPREPQVYTLPPSQEEMTKNQVSLSCAVKGFYPSDIAVEWESNGQPENNYKTTPPVLDSDGSFFLVSRLTVDKSRWQEGNVFSCSVMHEALHNRFTQKSLSLSLGK
notes: hIgG4 knob-in-hole Fc heterodimer, one IL-2v on the knob chain
One may read the Kd as the concentration at which binding is half-saturated. Consider B1, for which the Kd in assay [1] was determined as 0.016 nM; in assay [2], 269 nM; in assay [3] it was 7000 nM. Also, in assay [4], the “STAT5 activation of CTLL-2 cells, EC50” value came out at 0.2 nM. In assay [5], the “Treg EC50, STAT5 activation (PBMC STAT5 assay)” value (from here on “Treg EC50, STAT5 activation”) was 0.03 nM.

B2: Fc-IL-2v heterodimer 90.46 (hIL-2v_Δ1-5_E62A_C125S) (Fc fusion)
chain 1: ESKYGPPCPPCPAPEAAGGPSVFLFPPKPKDTLMISRTPEVTCVVVDVSQEDPEVQFNWYVDGVEVHNAKTKPREEQFNSTYRVVSVLTVLHQDWLNGKEYKCKVSNKGLPSSIEKTISKAKGQPREPQVYTLPPSQEEMTKNQVSLWCLVKGFYPSDIAVEWESNGQPENNYKTTPPVLDSDGSFFLYSRLTVDKSRWQEGNVFSCSVMHEALHNHYTQKSLSLSLGGGGGSGGGGSGGGGSGGGGSSTKKTQLQLEHLLLDLQMILNGINNYKNPKLTRMLTFKFYMPKKATELKHLQCLEEALKPLEEVLNLAQSKNFHLRPRDLISNINVIVLELKGSETTFMCEYADETATIVEFLNRWITFSQSIISTLT
chain 2: ESKYGPPCPPCPAPEAAGGPSVFLFPPKPKDTLMISRTPEVTCVVVDVSQEDPEVQFNWYVDGVEVHNAKTKPREEQFNSTYRVVSVLTVLHQDWLNGKEYKCKVSNKGLPSSIEKTISKAKGQPREPQVYTLPPSQEEMTKNQVSLSCAVKGFYPSDIAVEWESNGQPENNYKTTPPVLDSDGSFFLVSRLTVDKSRWQEGNVFSCSVMHEALHNRFTQKSLSLSLGK
notes: as for B1
In the case of B2, the Kd worked out at 0.152 nM in assay [1], 2400 nM in assay [2] and 8100 nM in assay [3]. For the same molecule, the “STAT5 activation of CTLL-2 cells, EC50” value in assay [4] came out at 2 nM. Further, the “Treg EC50, STAT5 activation” value in assay [5] turned out to be 0.08 nM.

B3: Fc-IL-2v heterodimer 89.46 (hIL-2v_Δ1-5_E61A_C125S) (Fc fusion)
chain 1: ESKYGPPCPPCPAPEAAGGPSVFLFPPKPKDTLMISRTPEVTCVVVDVSQEDPEVQFNWYVDGVEVHNAKTKPREEQFNSTYRVVSVLTVLHQDWLNGKEYKCKVSNKGLPSSIEKTISKAKGQPREPQVYTLPPSQEEMTKNQVSLWCLVKGFYPSDIAVEWESNGQPENNYKTTPPVLDSDGSFFLYSRLTVDKSRWQEGNVFSCSVMHEALHNHYTQKSLSLSLGGGGGSGGGGSGGGGSGGGGSSTKKTQLQLEHLLLDLQMILNGINNYKNPKLTRMLTFKFYMPKKATELKHLQCLEAELKPLEEVLNLAQSKNFHLRPRDLISNINVIVLELKGSETTFMCEYADETATIVEFLNRWITFSQSIISTLT
chain 2: ESKYGPPCPPCPAPEAAGGPSVFLFPPKPKDTLMISRTPEVTCVVVDVSQEDPEVQFNWYVDGVEVHNAKTKPREEQFNSTYRVVSVLTVLHQDWLNGKEYKCKVSNKGLPSSIEKTISKAKGQPREPQVYTLPPSQEEMTKNQVSLSCAVKGFYPSDIAVEWESNGQPENNYKTTPPVLDSDGSFFLVSRLTVDKSRWQEGNVFSCSVMHEALHNRFTQKSLSLSLGK
notes: as for B1
Turning to B3, the dissociation constant (Kd) in assay [1] worked out at 0.065 nM; in assay [2], 419 nM; in assay [3] it was 8800 nM. For the same molecule, the “STAT5 activation of CTLL-2 cells, EC50” value in assay [4] amounted to 0.02 nM. Further, in assay [5], the “Treg EC50, STAT5 activation” value was determined as 0.04 nM.

B4: mouse surrogate Fc-IL-2v heterodimer 169.250 (IL2v_F56A_Y59G_E76A_C140A) (Fc fusion)
chain 1: GPTIKPCPPCKCPAPNAAGGPSVFIFPPKIKDVLMISLSPIVTCVVVDVSEDDPDVQISWFVNNVEVHTAQTQTHREDYNSTLRVVSALPIQHQDWMSGKEFKCKVNNKDLGAPIERTISKPKGSVRAPQVYVLPPPEEEMTKKQVTLWCMVTDFMPEDIYVEWTNNGKTELNYKNTEPVLDSDGSYFMYSKLRVEKKNWVERNSYSCSVVHEGLHNHHTTKSFSRTPGGGGGSGGGGSGGGGSGGGGSQQQHLEQLLMDLQELLSRMENYRNLKLPRMLTAKFGLPKQATELKDLQCLEDALGPLRHVLDLTQSKSFQLEDAENFISNIRVTVVKLKGSDNTFECQFDDESATVVDFLRRWIAFAQSIISTSPQ
chain 2: GPTIKPCPPCKCPAPNAAGGPSVFIFPPKIKDVLMISLSPIVTCVVVDVSEDDPDVQISWFVNNVEVHTAQTQTHREDYNSTLRVVSALPIQHQDWMSGKEFKCKVNNKDLGAPIERTISKPKGSVRAPQVYVLPPPEEEMTKKQVTLSCAVTDFMPEDIYVEWTNNGKTELNYKNTEPVLDSDGSYFMVSKLRVEKKNWVERNSYSCSVVHEGLHNHHTTKSFSRTPGK
Regarding B4, the “pSTAT5 EC50, STAT5 activation of CTLL-2 cells” value in assay [6] was 51.4 nM.
